Assay results from patent CN113817050A (WUHAN INST OF BIOLOGICAL PRODUCTS CO LTD, dated 2021).

What was measured:
[1] = molecular target: T1, SARS-CoV-2刺突S1-His重组蛋白(Sino公司，货号:40591-V08H) (SARS-CoV-2 (2019-nCoV), UniProt P0DTC2 16-685); test: ELISA, S1-His coated at 1.0 μg/mL, detection by goat anti-human IgG-HRP
T1 construct: domain: S1; also called S1蛋白; 刺突蛋白S1

[2] = molecular target: SARS-CoV-2刺突S1亚基蛋白(Sino公司，货号:40591-V02H) (SARS-CoV-2 (2019-nCoV), UniProt P0DTC2 16-685)
[3] = molecular target: SARS-CoV-2 RBD结构域重组蛋白(Sino公司，货号40592-V05H) (SARS-CoV-2 (2019-nCoV), UniProt P0DTC2 319-541)

B1: 抗SARS-CoV-2的单克隆抗体1H8 (antibody, V domains shown)
VH: EVQLVESGGGLVQPGGSLRLSCAASEITVSSNYMNWVRQAPGKGLEWVSVIYSGGTTYYADSVKGRFTISRDNSENTLYLQMNSLRAEDTAVYYCARDLMEVGGMDVWGQGTTVTVSS
VL: DIVMTQSPSSLSASVGDRVTITCRASQGVSNYLAWYQQKPGKVPKLLIYAASTLQSGVPSRFSGSRSGTDFTLTISSLQPEDVATYYCQNYNSAPFAFGPGTKVEIK
notes: also called 人源抗SARS-CoV-2抗体1H8; 1H8抗体
Work on B1 yielded an EC50 [1] of 0.054 nM, an IC50 [2] of 5.76 nM and an EC50 [3] of 0.035 nM. The IC50 [3] was 3.6 nM.
